The record followed here is patent US7294753 (Biogen, dated 2007).

Where two headings read alike, the source gives them in different places.

Test [1] addresses T1, human macrophage migration inhibitory factor (MIF) (human, UniProt P14174 2-115). As to the kind of experiment: cell-based or functional assay.
Test [2] deals with T1, human macrophage migration inhibitory …. As to the kind of experiment: cell-based or functional assay. This is another data set of the same source.
The target is the same in test [3]. As to the kind of experiment: cell-based or functional assay. The source holds these as a separate data set.
Test [4] has the same target. As to the kind of experiment: column 'Binds Human MIF'; method not stated.
Test [5] shares this target. As to the kind of experiment: row 'human MIF Kd < 50 nm'; method not stated.
Test [6] has the same target. The test is described as follows: column 'Binds Human MIF'; method not stated. This is another data set of the same source.

T1 sequence (P14174 2-115 limits assumed): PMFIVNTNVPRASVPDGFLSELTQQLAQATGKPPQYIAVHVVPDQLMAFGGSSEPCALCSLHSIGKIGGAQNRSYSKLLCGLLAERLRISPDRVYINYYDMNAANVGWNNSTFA

B1: anti-MIF monoclonal antibody 29B12-1 (antibody, V domains shown)
VH: EVKLVESGGGSVQPGGSLKLSCATSGFIFSDYYMYWVRQTPEKRLEWVAYISIGSGNTYYPDTVKGRFTISRDIAKNTLYLQMSRLKSEDTAMYYCVRGRLRFLFDYAMDYWGQGTSVTVSS
VL: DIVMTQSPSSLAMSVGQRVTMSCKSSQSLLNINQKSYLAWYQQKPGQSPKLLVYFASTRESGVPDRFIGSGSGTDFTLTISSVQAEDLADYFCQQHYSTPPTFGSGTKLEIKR
Turning to B1, in test [1], the “% MIF PPT Activity” value is 146% and the “MIF Stimulated SRE Transcription (% MIF Activity), 10 µg mab/ml” value was found to be 25%. In test [2], the “% MIF PPt Activity” value is 146% and the “MIF Stimulated SRE Transcription (% MIF Activity), 10 µg mab/ml” value turned out to be 25%. Moreover, the “% MIF PPT Activity” value in test [3] was determined as 146%.

B2: anti-MIF monoclonal antibody 10B11-3 (antibody, V domains shown)
VH: EVQLQQSGPELVKPGASVRISCKTSGYTITEYTMHWMKQSHEKSLEWIGGITPNTGVLSDNQKFRGKATLTVDKSSNTAYMELRSLTSADSAVYYCARRGNNYYGSSPWFAYWGQGTLVTVSA
VL: DIQMTQSPASLSVSVGETVTITCRASENIYSNLAWYQQKQGKSPQLLVYAATNLADGVPSRFSGSGSGTQYSLNIYSLQPEDFGSYYCQHFWGTPYTFGGGTKLEIKR
notes: Mouse hybridoma antibody from a MIF knockout mouse, purified from ascites; also called Mab 10B11-3; 1OB11-3
B2: the equilibrium dissociation constant (Kd) in test [4], in test [5] and in test [6] was less than 0.1 nM each time. Moreover, the “% MIF PPT Activity” value in test [1] and in test [3] was 136% throughout. For the same molecule, in test [2], the “% MIF PPt Activity” value turned out to be 136%.

B3: anti-MIF monoclonal antibody 19B11-7 (antibody, V domains shown)
VH: QIQLVQSGPELKKPGETVKISCKASGYSFRNYGMNWVSQPPGKGLEWMGWINTYTGEPTYADDFKGRFAFSLDTSASTAYLTINNLKNEDTATYFCARSNYGNYFDYWGQGTTLTVSA
VL: NIVLTQSPASLALSLGQRATISCRTSESVDSYASSFMHWYQQKPGQSPKLLIYLASNLESGVPARFSGSGSRTDFTLTIDPVEADDAATYYCQQSNEDPRTFGGGTQLEIKR
notes: Mouse hybridoma antibody from a MIF knockout mouse, purified from ascites
With B3, the Kd in test [4] and in test [6] was less than 0.1 nM in each case. The “% MIF PPT Activity” value in test [1] and in test [3] was 0% in each case. Besides, the “MIF Stimulated SRE Transcription (% MIF Activity), 10 µg mab/ml” value in test [1] and in test [2] was 29% in each case. Also, the “% MIF PPt Activity” value in test [2] came to 0%.

B4: anti-MIF monoclonal antibody 22F11-6 (antibody, V domains shown)
VH: EVKLEESGGGLVQPGGSMKLSCAASGFTFGDAWMYWVRQSPEKGLEWVAEIRSKAHNHATYYAESVKGRFTISRDDSKSSVYLQMSSLRAEDTGIYYCTSHHYGSSWYFDVWGAGTTVTVSS
VL: DIQMTQSPASLSASVGETVTITCRASENIYSYLTWFQQKQGKSPQLLVYDAKTLAEGVPSSFSGSGSGTQFSLKIISLQPEHFGSYYCQHHYGRPYTFGGGTKLEIKR
notes: Mouse hybridoma antibody from a MIF knockout mouse, purified from ascites; also called Mab 22F11-6
On to B4, for which the Kd in test [4], in test [5] and in test [6] was less than 0.1 nM throughout. Further, the “% MIF PPT Activity” value in test [1] and in test [3] was 65% each time. Further, the “MIF Stimulated SRE Transcription (% MIF Activity), 10 µg mab/ml” value in test [1] and in test [2] was 42% each time. The “% MIF PPt Activity” value in test [2] came out at 65%.

B5: anti-MIF monoclonal antibody 6B5-5 (antibody, V domains shown)
VH: DVQLQESGPGLVKPSQSLSLTCTVTGSSITSDYAWHWIRQFPGNKLEWMGYISFSGSTGYNPSLKSRFSITRDTSKNQFFLQLNSVTTEDTATYYCAREAYGYDVGYFDYWGQGTTLTVSS
VL: QIVLTQSPAIMSAFPGEKVTITCSASSSVSYMHWFQQKPGTSPKLWIYGTSNLASGVPVRFSGSGSGTSYSLTISRMEAEDAATYYCQQRSSYPWTFGGGTKLEIKR
For B5, in test [1], the “% MIF PPT Activity” value was determined as 82% and the “MIF Stimulated SRE Transcription (% MIF Activity), 10 µg mab/ml” value came out at 36%. Further, in test [2], the “% MIF PPt Activity” value came out at 82% and the “MIF Stimulated SRE Transcription (% MIF Activity), 10 µg mab/ml” value stood at 36%. The “% MIF PPT Activity” value in test [3] is 82%.

B6: anti-MIF monoclonal antibody 33G7-9 (antibody, V domains shown)
VH: DVQLQESGPDLVKPSQSLSLTCSVTGYSITSGYYWNWIRQFPGNKLEWVGYLSYDGSKSHNPSLRNRISITRDPSKNQFFLKLNSVTTEDTATYYCARGGKIFYGSSYDPFAYWGQGTLVTVSS
VL: DIQMTQSPASLSASVGETVTITCRASENIFNYLSWYQQKQGKSPQLLVYNVKTLTDGVPSRFSGSGSGTQFSLKINSLQPEDFGSYYCQHHYDTPYTFGRGTKLEIKR
B6: the “% MIF PPT Activity” value in test [1] and in test [3] was 67% in each case. The “MIF Stimulated SRE Transcription (% MIF Activity), 10 µg mab/ml” value in test [1] and in test [2] was 5% each time. In test [2], the “% MIF PPt Activity” value came out at 67%.
